The text below walks through data of publication PMC6082141.

Assay [1] concerns the target microtubules assembled from porcine brain tubulin (porcine) (UniProt P02550). As to the kind of experiment: TIRF microscopy, MT-MT sliding assay.
The target is the same in assay [2]. As to the kind of experiment: single-molecule TIRF microscopy.
The target of assay [3] is carboxypeptidase A (CPA)-treated microtubules from porcine brain tubulin (porcine) (UniProt P02550). As to the kind of experiment: TIRF microscopy, fluorescence intensity on MTs.
Assay [4] concerns the target microtubules assembled from porcine brain tubulin (porcine) (UniProt P02550). As to the kind of experiment: TIRF microscopy, fluorescence intensity on MTs.

“dynein-dynactin-BicD2 co-complex (DDB) (from UniProt Q921C5 1-820; P38650 1-4644; P28023 1-1280)” came in with a lifetime (τ) of foci of two MT minus-ends brought into contact and held by DDB in assay [1] of 14.4 s. Also, in assay [2], the dwell time at MT minus-ends, long population (τ2) amounted to 54.8 s; the percent of incoming molecules that dwell at MT minus-ends with DDB clusters stood at 83%; the percent of incoming molecules that dwell at bare (vacant) MT minus-ends came to 77%.

As for “TMR-labeled p150-SNAP (from UniProt Q14203-1 1-1278) (natural protein)”, the integrated p150 intensity on the MT (minus background, per pixel) in assay [3] came to 1100 a.u; in assay [4] it was 2950 a.u.
